Reference: US20210101945A1 (University of Washington, published 2021)

Legend:
[1] = target: the molecule itself; experiment: oligomeric state and CD of the synthetic peptide in PBS; self-association
[2] = target: the molecule itself; experiment: characterisation of the purified design (method not given); self-association
[3] = target: the molecule itself; experiment: SAXS against the parallel homodimer design model
Protocol: (§1) Samples were purified by gel filtration in 20 mM Tris pH 8.0 at room temperature, 150 mM NaCl and 2% glycerol; fractions preceding the void volume of the column were used as blanks for buffer subtraction. Scattering measurements were performed at the SIBYLS 12.3.1 beamline at the Advanced Light Source. The X-ray wavelength (λ) was 1 Å, and the sample-to-detector distance of the Mar 165 detector was 1.5 m, corresponding to a scattering vector q (q=4πsin θ/λ, where 2θ is the scattering angle) range of 0.01 to 0.3 Å−1. Data sets were collected using exposures of 0.5, 1, and 6 seconds at 12 keV. […] For each sample, data was collected for at least two different concentrations to test for concentration-dependent effects; “high” concentration samples ranged from 3-7 mg/ml and “low” concentration samples ranged from 1-2 mg/ml. […] FoXS was used to compare design models to experimental scattering profiles and calculate quality of fit (X) values. For the design models, extra residues introduced by the expression vector were added to the computational models using Rosetta™ Remodel so that the design sequence matched that of the experimental sample. To capture the conformational flexibility of these extra tag residues in solution, 100 independent models were generated per design. […]

[4] = target: the molecule itself; experiment: SAXS, design model fit to the scattering data with FoXS
Protocol: as §1

[5] = target: the molecule itself; experiment: SAXS against the homotetramer design model
Protocol: (§2) Samples were purified by gel filtration in 20 mM Tris pH 8.0 at room temperature, 150 mM NaCl and 2% glycerol; fractions preceding the void volume of the column were used as blanks for buffer subtraction. Scattering measurements were performed at the SIBYLS 12.3.1 beamline at the Advanced Light Source. The X-ray wavelength (λ) was 1 Å, and the sample-to-detector distance of the Mar 165 detector was 1.5 m, corresponding to a scattering vector q (q=4πsin θ/λ, where 2θ is the scattering angle) range of 0.01 to 0.3 Å−1. Data sets were collected using exposures of 0.5, 1, and 6 seconds at 12 keV. […] For each sample, data was collected for at least two different concentrations to test for concentration-dependent effects; “high” concentration samples ranged from 3-7 mg/ml and “low” concentration samples ranged from 1-2 mg/ml. […] FoXS was used to compare design models to experimental scattering profiles and calculate quality of fit (X) values. For the design models, extra residues introduced by the expression vector were added to the computational models using Rosetta™ Remodel so that the design sequence matched that of the experimental sample. To capture the conformational flexibility of these extra tag residues in solution, 100 independent models were generated per design. These 100 models were then clustered by Rosetta™, and to avoid bias, the cluster center of the largest cluster was selected as the single representative model used for fitting to experimental data.

[6] = target: the molecule itself; experiment: X-ray crystal structure superimposed on the design model; homotrimer
Text: (§3) The optimum conditions for crystallization of the different designs were found as follows: 2L6HC3_6, 0.2 M Sodium Fluoride, 0.1 M MES pH 5.5 and 20% PEG 400; 2L6HC3_12, 2.2 M Sodium Malonate pH 5.0; 2L6HC3_13, 0.06 M Citric acid, 0.04 M BIS-TRIS propane pH 4.1 and 16% PEG 3,350; 2L8HC4_12, 0.2 M Sodium Acetate trihydrate, 0.1 M Tris hydrochloride pH 8.5 and 30% PEG 4,000; 3L6HC2_2, 0.1 M Sodium Acetate trihydrate pH 4.5 and 3.0 M Sodium chloride; 2L4HC2_23, 0.2 M Lithium chloride and 20% PEG 3,350; 2L4HC2_9, 0.1 M Sodium citrate tribasic dehydrate […]; 2L4HC2_11, 0.1 M Tris pH 8.5 and 2.0 M Ammonium sulfate; 5L6HC3_1, 0.1 M acid pH 3.5 and 3.0 M Sodium chloride; and 2L4HC2_24 was concentrated to 20 mg/ml and crystallized in 0.1 M Citric acid pH 3.5, 2.0 M Ammonium sulfate. […]
(§4) The crystals of the designed proteins were placed in a reservoir solution containing 15 to 20% (v/v) glycerol, and then flash-cooled in liquid nitrogen. […] All the design structures were determined by the molecular-replacement method with the program PHASER within the Phenix suite using the design models as the initial search model. […] Root-mean-square deviation differences from ideal geometries for bond lengths, angles and dihedrals were calculated with Phenix. The overall stereochemical quality of all final models was assessed using the program MOLPROBITY.

[7] = target: the molecule itself; experiment: X-ray crystal structure; homodimer
Text: as §3, §4

[8] = target: the molecule itself; experiment: oligomeric state of the purified design, and SAXS; antiparallel homodimer
Protocol: as §2

[9] = target: the molecule itself; experiment: X-ray crystal structure; homotrimer
Text: as §3, §4

[10] = target: the molecule itself; experiment: X-ray crystal structure superimposed on the design model; homodimer
Text: as §3, §4

[11] = target: the molecule itself; experiment: X-ray crystal structure (3.8 Å) and SAXS; homotetramer
Protocol: The crystals of the designed proteins were placed in a reservoir solution containing 15 to 20% (v/v) glycerol, and then flash-cooled in liquid nitrogen. The X-ray data sets were collected at the Berkeley Center for Structural Biology beamlines 5.0.1, 8.2.1 and 8.2.2 of the Advanced Light Source at Lawrence Berkeley National Laboratory (LBNL). Data sets were indexed and scaled using HKL2000. All the design structures were determined by the molecular-replacement method with the program PHASER within the Phenix suite using the design models as the initial search model. The atomic positions obtained from molecular replacement and the resulting electron density maps were used to build the design structures and initiate crystallographic refinement and model rebuilding. Structure refinement was performed using the phenix.refine program. Manual rebuilding using COOT and the addition of water molecules allowed construction of the final models. Root-mean-square deviation differences from ideal geometries for bond lengths, angles and dihedrals were calculated with Phenix. The overall stereochemical quality of all final models was assessed using the program MOLPROBITY.
Samples were purified by gel filtration in 20 mM Tris pH 8.0 at room temperature, 150 mM NaCl and 2% glycerol; fractions preceding the void volume of the column were used as blanks for buffer subtraction. […]

B1: 2L6HC3_13_inner (peptide)
peptide: Ac-TERENNYRNEENNRKIEEEIREIKKEIKKNKERD-NH2
notes: Synthetic inner-ring-only peptide; reported as unfolded and monomeric in isolation; also called inner ring peptide of 2L6HC3_13
Does B1 bind [1]?
Result: no binding

B2: 2L4HC2_9 (designed binder)
chain: GTSDYIIEQIQRDQEEARKKVEEAEERLERVKEASKRGVSSDQLLDLIRELAEIIEELIRIIRRSNEAIKELIKNQS
notes: Monomer subunit (helical hairpin) of a designed left-handed C2 homodimer; entries pair it with itself; Expressed in E. coli with a His tag (C-terminal, or N-terminal and thrombin-cleavable); Underlined residues are said to be optional, but the underlining is not visible
Does B2 bind [2]?
Result: binds

B3: 3L6HC2_4 (designed binder)
chain: SALEKIAKLIIEAARLSAELARRAARASAEMARKAIEAVSEERGSESLLKIVADLIVESQEAVVRLIIESQQIAAKLAEDLIRAAKEAASDESKMEEVAKEVQERAERAARDIERKLKRVLEELDYKLKESRDGS
notes: Monomer subunit of a designed parallel right-handed six-helix C2 homodimer; entries pair it with itself
Does B3 bind [3]?
Result: binds

B4: 5L4HC2_12 (designed binder)
chain: GTETKKLVEEVERALRELLKTSEDLVRKVEKALRELLELIRRGGTKDKIEEKIRRVLEEIKRELERQKRKIEDVLRQIKEELYRS
notes: Monomer subunit of a designed untwisted C2 homodimer; entries pair it with itself
Does B4 bind [4]?
Result: binds

B5: 5L8HC4_2 (designed binder)
chain: SEQLKEIARILIKLIESLTRFILEVARILIELIEETQRLIVASTDSDESELERIARESKKKAKKALDELKKIVDDQRREAKKAIEELEYDGS
notes: Monomer subunit of a designed untwisted C4 homotetramer; entries pair it with itself
Does B5 bind [5]?
Result: binds

B6: 2L6HC3_6 (designed binder)
chain: GTKYKIKETLKRLEDSLRELRRILEELKEMLERLEKNPDKDVIVEVLKVIVKAIEASVENQRISAENQKALAESD
notes: Monomer subunit of a designed left-handed C3 homotrimer; entries pair it with itself; also called XXBB
Does B6 bind [6]?
Result: binds

B7: 2L4HC2_11 (designed binder)
chain: GSEDYKLREAQRELDKQRKDTEEIRKRLKEIQRLTDERTSTADELIKELREIIRRLQEQSEKLREIIEELEKIIRKR
notes: Monomer subunit of a designed left-handed C2 homodimer; entries pair it with itself
Does B7 bind [7]?
Result: binds

B8: 2L6Hanti_2 (designed binder)
chain: SEELRKAAENNELAVRLAEAALRMARSALHLFEENPSDEMLKFLELAMEVAKMAAELLKASLKMLKKAAEERGSDESVKYLADKSRDIMRQITEELKKLEEEAKRAQKRGS
notes: Monomer subunit of a designed left-handed antiparallel homodimer; entries pair it with itself
Does B8 bind [8]?
Result: binds

B9: 3L6HC2_7 (designed binder)
chain: SILELAHESNRRALEMASRANREAMKAAREMIRAASEAARRAGSSNDKDSLRMIEEALRLALRMIEETNKKAVRMVLENNRKMVEAEKKKLSEEEIKRIAKETEDRMREIARRASEEARRLAEEIKREADYRSGS
notes: as for B3
Does B9 bind [3]?
Result: binds

B10: 2L4HC2_24 (designed binder)
chain: GTDTDELLRLAKEQAELLKEIKKLVEEIARLVKEIQEDPSDELLKTLAELVRKLKELVEDMERSMKEQLYIIKKQKS
notes: as for B7
Does B10 bind [7]?
Result: binds

B11: 2L6Hanti_3 (designed binder)
chain: SEKARIAVENLEAALRLNRAAAEMQKSAIKIMDDNRSDEKALRYLRLTTKVLRMSVELLRASLELAEKALREEGSDDSAEKVRKEAEEILKESTEILKEADKETKRADEEGS
notes: as for B8
Does B11 bind [8]?
Result: binds

B12: 5L6HC3_1 (designed binder)
chain: SEELRAVADLQRLNIELARKLLEAVARLQELNIDLVRKTSELTDEKTIREEIRKVKEESKRIVEEAEEEIRRAKEESRYIADESRGS
notes: Monomer subunit of a designed untwisted C3 homotrimer; entries pair it with itself; also called untwisted trimer
Does B12 bind [9]?
Result: binds

B13: 2L4HC2_23 (designed binder)
chain: GTRTEIIRELERSLREQEELAKRLKELLRELERLQREGSSDEDVRELLREIKELVEEIEKLAREQKYLVEELKRQD
notes: as for B7
Does B13 bind [10]?
Result: binds

B14: 2L6Hanti_5 (designed binder)
chain: TDVLRIAAENLKAAVELAKAALEMAKSAIEIAKTLTEDDEALKFARAAAEVLRMAAKLLKLSIELARKAAEEEGSDDEVRYILDEARKQADELREALKKVDEIMKELDKRGS
notes: as for B8
Does B14 bind [8]?
Result: binds

B15: 2L6HC3_12 (designed binder)
chain: GTKYELRRALEELEKALQELREMLRKLKESLEELKKNPSEDALVRNNELIVEVLRVIVEVLSIIARVLEINARSD
notes: Monomer subunit of a designed left-handed C3 homotrimer; entries pair it with itself
Does B15 bind [9]?
Result: binds

B16: 2L8HC4_12 (designed binder)
chain: GTAIEANSRMLKALIEIAKAIWKALWANSLLLEATSRGDTERMRQWAEEAREIYKEAKKIIDEADEIVKEAKERHD
notes: Monomer subunit of a designed left-handed C4 homotetramer; entries pair it with itself; also called lefthanded tetramer
Does B16 bind [11]?
Result: binds

B17: 5L8HC4_1 (designed binder)
chain: GSKVEELLRKSEEAAERAKRELERLLEESERIVAEAQALAEKYESQKVWVRILIELIRATNRMLAEIARILLEMIEVTNRMIAESTK
notes: as for B5
Does B17 bind [5]?
Result: binds

B18: 2L6Hanti_1 (designed binder)
chain: SDYLRLATEHNKLAVEANRLAIELAKSAVELAETDPSKTALEHAELAARLLEMMVQFTKAAQELTREAIRKEGRNEESEKVLRKSKEAYKESEKALEDARRLLDELRKKGS
notes: Monomer subunit (three helices) of a designed left-handed antiparallel homodimer; entries pair it with itself
Does B18 bind [8]?
Result: binds

B19: 5L8HC4_6 (designed binder)
chain: GSKDTEDSRKIWEDIRRLLEEARKNSEEIWKEITKNPDTSEIARLLSEQLLEIAEMLVRIAELLSRQTEQR
notes: as for B5
Does B19 bind [5]?
Result: binds

B20: 2L6HC3_13 (designed binder)
chain: GTKYELRRALEELEKALRELKKSLDELERSLEELEKNPSEDALVENNRLNVENNKIIVEVLRIIAEVLKINAKSD
notes: Monomer subunit of a designed left-handed C3 homotrimer; entries pair it with itself; also called AAXX
Does B20 bind [6]?
Result: binds

B21: 2L6Hanti_4 (designed binder)
chain: SRRLELAARINKAAAENARSAIEIQELAARLADELSSSKKVIDFARATTEVLRMSVKLLKLSLEMLEEAARQDGRSEEVRYLAEESKKILEEARKALEDADRLTKRIEEEGS
notes: as for B8
Does B21 bind [8]?
Result: binds
